Publication PMC11270970

Biological target: nucleolin (NuP), recombinant human (Homo sapiens) (UniProt P19338)
Test: SPR
Conditions: SPR with recombinant human nucleolin, buffer, salt, pH and temperature not given in the material

nucleolin (NuP), recombinant human (Homo sapiens), sequence (P19338 2-710): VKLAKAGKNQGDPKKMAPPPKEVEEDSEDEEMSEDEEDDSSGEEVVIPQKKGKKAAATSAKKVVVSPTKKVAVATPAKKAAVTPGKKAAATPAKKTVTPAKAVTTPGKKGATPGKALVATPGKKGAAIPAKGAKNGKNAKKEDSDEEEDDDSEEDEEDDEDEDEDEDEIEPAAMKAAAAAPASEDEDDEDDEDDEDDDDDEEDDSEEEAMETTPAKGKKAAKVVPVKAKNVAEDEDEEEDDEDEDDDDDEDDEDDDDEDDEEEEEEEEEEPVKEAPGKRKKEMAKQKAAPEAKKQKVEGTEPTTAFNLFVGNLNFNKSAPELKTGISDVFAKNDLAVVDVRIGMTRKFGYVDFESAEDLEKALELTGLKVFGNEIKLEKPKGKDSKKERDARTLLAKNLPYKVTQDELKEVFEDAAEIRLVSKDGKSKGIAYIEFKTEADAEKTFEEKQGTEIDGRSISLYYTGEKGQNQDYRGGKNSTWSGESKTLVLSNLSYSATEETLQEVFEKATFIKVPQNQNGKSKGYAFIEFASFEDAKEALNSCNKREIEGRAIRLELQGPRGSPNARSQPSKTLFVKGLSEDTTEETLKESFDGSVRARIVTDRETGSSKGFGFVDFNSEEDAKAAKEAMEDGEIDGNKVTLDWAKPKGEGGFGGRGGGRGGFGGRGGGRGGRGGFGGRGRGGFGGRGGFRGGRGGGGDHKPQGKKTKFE

| Sequence | Kd (1:1 Langmuir fit, 5' CH2CH2-(OCH2CH2)3-O linker as listed in Table S1, 5' amino form also listed, form used in SPR not stated) | Kd (5' triptolide via acetal ester linker - amino-CH2CH2-(OCH2CH2)3-O-) |
| --- | --- | --- |
| GGTGGTGGTGGTTGTGGTGGTGGTGG [AS1411] | 3.77 nM | – |
| GGTGGTGGTGGTTGTGGTGGTGGTGG [AS-TP (TP-amino-AS1411, 6a)] | – | 4.03 nM |
